Article PMC2976697

Molecular target: Helicobacter pylori CCUG 17874 L-asparaginase (Helicobacter pylori CCUG 17874) (UniProt O25424)
Assay: non-reducing SDS-PAGE with LC-MS/MS of the band; active Superdex 75 fractions of BCF, mixed with non-reducing SDS buffer, 10-12% SDS-PAGE; band at about 121 kDa cut out, trypsin digested and identified by LC-MS/MS

**Q.** “Helicobacter pylori CCUG 17874 L-asparaginase (from UniProt O25424 1-330) (enzyme)” was tested. Which stoichiometry N did it give?
**A.** 4
